Results reported in paper PMC7485978, “A tyrosine phosphoregulatory system controls exopolysaccharide biosynthesis and biofilm formation in Vibrio cholerae” (PLoS Pathogens, 2020).

Legend:
[1] = target: VpsO-503^(E519A, R522A, R525A) kinase domain; assay: SEC-MALS; 25 uL of each VpsO protein at 1.5 mg/mL injected on a silica-based SEC analytical HPLC column; 25 mM Tris pH 8.0, 50 mM NaCl, 1 mM DTT; room temperature
[2] = target: VpsU, low-molecular-weight phosphotyrosine protein phosphatase; assay: SEC

Substance | stoichiometry N [1] | stoichiometry N [2]
VpsO-503^(E519A, R522A, R525A) kinase domain (domain or fragment) | 2 | –
VpsU, low-molecular-weight phosphotyrosine protein phosphatase (enzyme) | – | 2
